Molecular target: HLA-A*02:01 (Homo sapiens, UniProt P04439, D140Y/D185E/D98H/E176V/E277Q/G131W/G231S/I119V/I121R/I166T/I218V/L300P/L318F/N151K/N90K/P208A/P217A/Q86G/Q94H/R138H/R169H/T345S)
Assay: MHC binding assay: UV-ligand exchange with β2m ELISA (peptide exchange yield)
Conditions: MHC class I binding score; binding to HLA-A*02:01 ranged by peptide exchange yield (UV-ligand exchange, β2m ELISA)
Method in brief: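 UV-exchange pMHC monomers, 100-fold diluted → streptavidin capture 1 h 37 °C → HRP anti-β2m 2 ug/ml 1 h 37 °C → TMB, A450. Yield from HLA-A*02:01/MLA-001 monomer standard curve, 15-500 ng/ml. Only stably bound peptides keep β2m-containing complexes intact.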

| Peptide Exchange | Substance |
| --- | --- |
| ″+++″ (≥50 = +++) | 18 (LLGEFSIKM; listed as Homo sapiens) [compound 18] |
| ″+++″ (≥50 = +++) | 274 (VLLEYHIAYL; listed as Homo sapiens) [compound 274] |
| ″++++″ (≥75% = ++++) | 23 (ALYLTEVFL; listed as Homo sapiens) [compound 23] |
| ″+++″ (≥50 = +++) | 64 (KLLESVASA; listed as Homo sapiens) [compound 64] |
| ″++″ (≥20% = ++) | 103 (KLGGTPAPA; listed as Homo sapiens) [compound 103] |
| ″+++″ (≥50 = +++) | 315 (LVYEAPETV; listed as Homo sapiens) [compound 315] |
| ″++++″ (≥75% = ++++) | 85 (HLMLHTAAL; listed as Homo sapiens) [compound 85] |
| ″++″ (≥20% = ++) | 84 (GVMDVNTAL; listed as Homo sapiens) [compound 84] |
| ″+++″ (≥50 = +++) | 347 (YLGPVSPSL; listed as Homo sapiens) [compound 347] |
| ″+++″ (≥50 = +++) | 12 (ALGEDEITL; listed as Homo sapiens) [compound 12] |
| ″+++″ (≥50 = +++) | 352 (ALVFELHYV; listed as Homo sapiens) [compound 352] |
| ″++++″ (≥75% = ++++) | 232 (FMHQIIDQV; listed as Homo sapiens) [compound 232] |
| ″+++″ (≥50 = +++) | 335 (YLYQEQYFI; listed as Homo sapiens) [compound 335] |
| ″+++″ (≥50 = +++) | 15 (ALPEVSVEA; listed as Homo sapiens) [compound 15] |
| ″+++″ (≥50 = +++) | 292 (AAALIIHHV; listed as Homo sapiens) [compound 292] |
| ″+++″ (≥50 = +++) | 211 (LIDVKPLGV; listed as Homo sapiens) [compound 211] |
| ″+++″ (≥50 = +++) | 94 (ILFPLRFTL; listed as Homo sapiens) [compound 94] |
| ″+++″ (≥50 = +++) | 59 (FVFGDENGTVSL; listed as Homo sapiens) [compound 59] |
| ″+++″ (≥50 = +++) | 273 (VLGEYSYLL; listed as Homo sapiens) [compound 273] |
| ″++″ (≥20% = ++) | 271 (VIRNIVEAA; listed as Homo sapiens) [compound 271] |
| ″+++″ (≥50 = +++) | 53 (FLWQHVELVL; listed as Homo sapiens) [compound 53] |
| ″+++″ (≥50 = +++) | 38 (FIMEGGAMV; listed as Homo sapiens) [compound 38] |
| ″+++″ (≥50 = +++) | 132 (LVYEAIIMV; listed as Homo sapiens) [compound 132] |
| ″++++″ (≥75% = ++++) | 194 (YLDNVLAEL; listed as Homo sapiens) [compound 194] |

| Peptide Exchange | Substance |
| --- | --- |
| ″+++″ (≥50 = +++) | 189 (VMLEMTPEL; listed as Homo sapiens) [compound 189] |
| ″++″ (≥20% = ++) | 306 (VVAEELENV; listed as Homo sapiens) [compound 306] |
| ″++″ (≥20% = ++) | 74 (GLLRASFLL; listed as Homo sapiens) [compound 74] |
| ″++″ (≥20% = ++) | 47 (FLSDQPEPYL; listed as Homo sapiens) [compound 47] |
| ″+++″ (≥50 = +++) | 6 (ALDTLEDDMTI; listed as Homo sapiens) [compound 6] |
| ″++″ (≥20% = ++) | 248 (KTVEPPISQV; listed as Homo sapiens) [compound 248] |
| ″+++″ (≥50 = +++) | 291 (ILLNEDDLVTI; listed as Homo sapiens) [compound 291] |
| ″+++″ (≥50 = +++) | 126 (LLPEGGITAI; listed as Homo sapiens) [compound 126] |
| ″+++″ (≥50 = +++) | 272 (VLDELPPLI; listed as Homo sapiens) [compound 272] |
| ″+++″ (≥50 = +++) | 79 (GLQAKIQEA; listed as Homo sapiens) [compound 79] |
| ″+++″ (≥50 = +++) | 242 (ILLGIQELL; listed as Homo sapiens) [compound 242] |
| ″+++″ (≥50 = +++) | 299 (ILEENIPVL; listed as Homo sapiens) [compound 299] |
| ″+++″ (≥50 = +++) | 179 (VLLGLEMTL; listed as Homo sapiens) [compound 179] |
| ″+++″ (≥50 = +++) | 238 (GLVETELQL; listed as Homo sapiens) [compound 238] |
| ″+++″ (≥50 = +++) | 20 (ALVDPGPDFVV; listed as Homo sapiens) [compound 20] |
| ″++″ (≥20% = ++) | 356 (FLHDHQAEL; listed as Homo sapiens) [compound 356] |
| ″+++″ (≥50 = +++) | 301 (AASPIITLV; listed as Homo sapiens) [compound 301] |
| ″++++″ (≥75% = ++++) | 382 (YLLPLLQRL; listed as Homo sapiens) [compound 382] |
| ″+++″ (≥50 = +++) | 45 (FLPELPADLEA; listed as Homo sapiens) [compound 45] |
| ″++++″ (≥75% = ++++) | 168 (YLLDQSFVM; listed as Homo sapiens) [compound 168] |
| ″+++″ (≥50 = +++) | 128 (LLSEEEYHL; listed as Homo sapiens) [compound 128] |
| ″++″ (≥20% = ++) | 296 (FIAPTGHSL; listed as Homo sapiens) [compound 296] |
| ″+++″ (≥50 = +++) | 334 (YLLEEKIASL; listed as Homo sapiens) [compound 334] |

Source: patent US10117916B2, “Peptides and combination of peptides for use in immunotherapy against CLL and other cancers” (immatics biotechnologies GmbH, priority 2015, dated 2018)
